From the supplement of paper PMC10724198
± gives the standard deviation of the averaged measurements.

Assays:
Saccharomyces cerevisiae [1] = experiment: protein stability index of tFT-peptide fusion (C-terminal peptide) (PSI (0-1 scale)); higher = more stable (slower turnover); details: genetic background: wild type; temperature: 30 C
Saccharomyces cerevisiae [2] = experiment: as above
Method: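 MPS profiling in S. cerevisiae of the tFT-X12 degron library: putative degron peptides plus stable controls, 12 aa, fused to the C-terminus of a sfGFP-mCherry timer. Cells are FACS-sorted into 8 mCherry/sfGFP bins and deep-sequenced. PSI runs from 0 (unstable) to 1 (stable). Backgrounds are wild type, das1Δ and doa10Δ at 30 °C, and wild type, das1Δ, cdc34-1 and cdc53-1 at 37 °C; 2-3 technical replicates each.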

[3] = genetic background: cdc34-1, temperature: 37 C
[4] = genetic background: cdc53-1, temperature: 37 C
[5] = genetic background: das1 deletion, temperature: 30 C
[6] = genetic background: das1 deletion, temperature: 37 C
[7] = genetic background: doa10 deletion, temperature: 30 C
[8] = genetic background: wild type, temperature: 30 C
[9] = genetic background: wild type, temperature: 37 C
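Further: PSI is a weighted mean of sequencing reads over stability bins, variants kept only with over 10 reads, mCherry proximal and sfGFP distal, peptide attached via GGGS linker.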

Row | Sequence | protein stability index (Saccharomyces cerevisiae [1]) | protein stability index (Saccharomyces cerevisiae [2]; [3]) | protein stability index (Saccharomyces cerevisiae [2]; [4]) | protein stability index (Saccharomyces cerevisiae [2]; [5]) | protein stability index (Saccharomyces cerevisiae [2]; [6]) | protein stability index (Saccharomyces cerevisiae [2]; [7]) | protein stability index (Saccharomyces cerevisiae [2]; [8]) | protein stability index (Saccharomyces cerevisiae [2]; [9])
1 | HVPPVFQASLSP | 0.747 ± 0.037 | 0.675 ± 0.072 | 0.7368 ± 0.0055 | 0.662 ± 0.014 | 0.743 ± 0.015 | 0.662 ± 0.011 | 0.667 ± 0.017 | 0.7131 ± 0.0057
2 | ICFFQGVVVLFR | 0.407 ± 0.0077 | 0.353 ± 0.033 | 0.403 ± 0.005 | 0.312 ± 0.026 | 0.48 ± 0.014 | 0.3653 ± 0.0027 | 0.303 ± 0.044 | 0.4521 ± 0.0013
3 | IFFVLVFFPGFF | 0.443 ± 0.06 | 0.483 ± 0.036 | 0.541 ± 0.022 | 0.366 ± 0.035 | 0.548 ± 0.014 | 0.359 ± 0.023 | 0.374 ± 0.0071 | 0.506 ± 0.012
4 | IFHWLYLLIALI | 0.309 ± 0.014 | 0.459 ± 0.025 | 0.497 ± 0.015 | 0.436 ± 0.027 | 0.524 ± 0.0054 | 0.2701 ± 0.0025 | 0.254 ± 0.029 | 0.312 ± 0.014
5 | IFLKFGLLRSLL | 0.488 ± 0.026 | 0.9386 ± 0.006 | 0.8936 ± 0.0072 | 0.744 ± 0.012 | 0.85 ± 0.031 | 0.6161 ± 0.0027 | 0.628 ± 0.046 | 0.792 ± 0.053
6 | IGMVSELLLFYP | 0.72 ± 0.017 | 0.721 ± 0.047 | 0.7374 ± 0.0073 | 0.671 ± 0.022 | 0.7676 ± 0.0068 | 0.63 ± 0.0085 | 0.667 ± 0.045 | 0.73 ± 0.008
7 | IGSFYVLSFICQ | 0.475 ± 0.02 | 0.593 ± 0.043 | 0.61 ± 0.018 | 0.454 ± 0.021 | 0.626 ± 0.019 | 0.438 ± 0.024 | 0.458 ± 0.043 | 0.592 ± 0.014
8 | IHTFSVVVVVAA | 0.163 ± 0.022 | 0.0536 ± 0.037 | 0.0437 ± 0.026 | 0.128 ± 0.029 | 0.135 ± 0.0088 | 0.0749 ± 0.0091 | 0.114 ± 0.031 | 0.128 ± 0.03
9 | IIFACFYGVFLM | 0.187 ± 0.0052 | 0.0485 ± 0.025 | 0.0619 ± 0.03 | 0.141 ± 0.019 | 0.169 ± 0.024 | 0.282 ± 0.052 | 0.0949 ± 0.036 | 0.109 ± 0.0083
10 | ILDRRPRTFALV | 0.186 ± 0.0083 | 0.572 ± 0.017 | 0.644 ± 0.018 | 0.633 ± 0.02 | 0.692 ± 0.013 | 0.0946 ± 0.015 | 0.113 ± 0.011 | 0.149 ± 0.008
11 | IMGGLRHRIEVY | 0.352 ± 0.016 | 0.366 ± 0.038 | 0.403 ± 0.048 | 0.273 ± 0.028 | 0.477 ± 0.012 | 0.23 ± 0.0031 | 0.268 ± 0.034 | 0.437 ± 0.0067
12 | IRSLRPFLLPLF | 0.4088 ± 0.004 | 0.645 ± 0.016 | 0.731 ± 0.018 | 0.643 ± 0.022 | 0.7184 ± 0.0066 | 0.283 ± 0.004 | 0.306 ± 0.03 | 0.543 ± 0.0084
13 | IRVFSFLLFGCF | 0.44 ± 0.056 | 0.465 ± 0.027 | 0.503 ± 0.007 | 0.373 ± 0.033 | 0.546 ± 0.03 | 0.358 ± 0.012 | 0.364 ± 0.027 | 0.488 ± 0.02
14 | ISFQFFVCLCAR | 0.234 ± 0.019 | 0.13 ± 0.0054 | 0.181 ± 0.0063 | 0.159 ± 0.022 | 0.289 ± 0.0036 | 0.145 ± 0.005 | 0.161 ± 0.018 | 0.253 ± 0.0092
15 | ISHLQCFFVVML | 0.489 ± 0.042 | 0.439 ± 0.029 | 0.507 ± 0.025 | 0.355 ± 0.026 | 0.563 ± 0.016 | 0.3759 ± 0.0013 | 0.346 ± 0.034 | 0.485 ± 0.0089
16 | ISLSSLYVVMYV | 0.291 ± 0.024 | 0.413 ± 0.0072 | 0.418 ± 0.041 | 0.227 ± 0.026 | 0.428 ± 0.011 | 0.178 ± 0.0094 | 0.195 ± 0.027 | 0.3919 ± 0.0016
17 | IVFFVLFRFWRF | 0.32 ± 0.047 | 0.354 ± 0.019 | 0.3827 ± 0.0031 | 0.326 ± 0.038 | 0.46 ± 0.025 | 0.318 ± 0.02 | 0.294 ± 0.017 | 0.442 ± 0.013
18 | IVRLGRWLGLSC | 0.352 ± 0.052 | 0.657 ± 0.032 | 0.691 ± 0.025 | 0.613 ± 0.055 | 0.709 ± 0.013 | 0.215 ± 0.031 | 0.261 ± 0.028 | 0.494 ± 0.028
19 | IYEAFLVFCLCG | 0.365 ± 0.021 | 0.426 ± 0.016 | 0.454 ± 0.011 | 0.326 ± 0.028 | 0.543 ± 0.014 | 0.284 ± 0.016 | 0.287 ± 0.015 | 0.4385 ± 0.0019
20 | KKKEIIKIIKIN | 0.127 ± 0.013 | 0.311 ± 0.033 | 0.643 ± 0.044 | 0.697 ± 0.065 | 0.72 ± 0.048 | 0.0624 ± 0.022 | 0.0729 ± 0.034 | 0.0954 ± 0.039

Row | Sequence | protein stability index (Saccharomyces cerevisiae [1]) | protein stability index (Saccharomyces cerevisiae [2]; [3]) | protein stability index (Saccharomyces cerevisiae [2]; [4]) | protein stability index (Saccharomyces cerevisiae [2]; [5]) | protein stability index (Saccharomyces cerevisiae [2]; [6]) | protein stability index (Saccharomyces cerevisiae [2]; [7]) | protein stability index (Saccharomyces cerevisiae [2]; [8]) | protein stability index (Saccharomyces cerevisiae [2]; [9])
21 | KKKKKKKIKIMS | 0.266 ± 0.048 | 0.583 ± 0.0096 | 0.706 ± 0.019 | 0.636 ± 0.024 | 0.689 ± 0.018 | 0.176 ± 0.03 | 0.232 ± 0.051 | 0.293 ± 0.032
22 | KKKNIYKVMKLE | 0.403 ± 0.055 | 0.65 ± 0.011 | 0.706 ± 0.011 | 0.646 ± 0.035 | 0.72636 ± 0.00051 | 0.146 ± 0.043 | 0.19 ± 0.041 | 0.307 ± 0.025
23 | KLCVGLVLSFVC | 0.257 ± 0.053 | 0.47 ± 0.021 | 0.503 ± 0.043 | 0.341 ± 0.028 | 0.5351 ± 0.0032 | 0.176 ± 0.0034 | 0.206 ± 0.023 | 0.3964 ± 0.0008
24 | KWGRFQQVMVIN | 0.266 ± 0.0042 | 0.558 ± 0.037 | 0.664 ± 0.014 | 0.5 ± 0.029 | 0.641 ± 0.0096 | 0.136 ± 0.0045 | 0.156 ± 0.022 | 0.34 ± 0.025
25 | KYQVIILQTRKI | 0.398 ± 0.0041 | 0.578 ± 0.014 | 0.754 ± 0.0091 | 0.634 ± 0.063 | 0.765 ± 0.032 | 0.201 ± 0.064 | 0.252 ± 0.053 | 0.491 ± 0.02
26 | LACGIDGYYWRH | 0.792 ± 0.027 | 0.703 ± 0.048 | 0.7448 ± 0.0019 | 0.667 ± 0.015 | 0.73851 ± 0.00042 | 0.6631 ± 0.0021 | 0.682 ± 0.028 | 0.709 ± 0.017
27 | LAFMYFVCPRLA | 0.369 ± 0.0057 | 0.598 ± 0.045 | 0.645 ± 0.0077 | 0.56 ± 0.02 | 0.6511 ± 0.0057 | 0.245 ± 0.0083 | 0.269 ± 0.031 | 0.464 ± 0.022
28 | LAVVLVWVPGRW | 0.418 ± 0.026 | 0.443 ± 0.037 | 0.526 ± 0.057 | 0.335 ± 0.032 | 0.563 ± 0.019 | 0.311 ± 0.0059 | 0.347 ± 0.023 | 0.561 ± 0.05
29 | LCFFLAFSFVFF | 0.296 ± 0.0099 | 0.253 ± 0.017 | 0.324 ± 0.011 | 0.231 ± 0.025 | 0.382 ± 0.026 | 0.289 ± 0.00096 | 0.236 ± 0.022 | 0.3374 ± 0.0016
30 | LCFGMVELMWIY | 0.458 ± 0.0053 | 0.418 ± 0.057 | 0.52 ± 0.071 | 0.388 ± 0.046 | 0.521 ± 0.011 | 0.371 ± 0.047 | 0.377 ± 0.037 | 0.471 ± 0.018
31 | LCFRLVSYLCIN | 0.39 ± 0.0077 | 0.497 ± 0.054 | 0.694 ± 0.013 | 0.591 ± 0.048 | 0.6781 ± 0.0015 | 0.223 ± 0.0073 | 0.221 ± 0.011 | 0.37 ± 0.013
32 | LCGIFTFRLSLL | 0.388 ± 0.051 | 0.693 ± 0.06 | 0.7815 ± 0.0027 | 0.668 ± 0.028 | 0.706 ± 0.014 | 0.245 ± 0.026 | 0.273 ± 0.024 | 0.437 ± 0.005
33 | LCIYNFGWWFCV | 0.183 ± 0.056 | 0.494 ± 0.011 | 0.637 ± 0.044 | 0.561 ± 0.036 | 0.6389 ± 0.0054 | 0.121 ± 0.015 | 0.134 ± 0.0087 | 0.128 ± 0.014
34 | LCLLCWIPCSFR | 0.524 ± 0.048 | 0.629 ± 0.017 | 0.62751 ± 0.00045 | 0.451 ± 0.029 | 0.649 ± 0.0077 | 0.486 ± 0.035 | 0.4661 ± 0.0017 | 0.616 ± 0.0074
35 | LCLLFLSFFFVC | 0.307 ± 0.0056 | 0.464 ± 0.0083 | 0.515 ± 0.014 | 0.374 ± 0.037 | 0.555 ± 0.086 | 0.229 ± 0.015 | 0.234 ± 0.027 | 0.361 ± 0.0065
36 | LCVVVICCLMAR | 0.279 ± 0.05 | 0.097 ± 0.025 | 0.198 ± 0.055 | 0.123 ± 0.036 | 0.265 ± 0.0071 | 0.0806 ± 0.015 | 0.125 ± 0.026 | 0.216 ± 0.012
37 | LDLSSVFILYFN | 0.374 ± 0.022 | 0.599 ± 0.041 | 0.6735 ± 0.0021 | 0.518 ± 0.0058 | 0.709 ± 0.048 | 0.2653 ± 0.0025 | 0.28 ± 0.028 | 0.54398 ± 0.00036
38 | LEGRFLACRGIC | 0.264 ± 0.04 | 0.619 ± 0.028 | 0.719 ± 0.048 | 0.598 ± 0.018 | 0.728 ± 0.02 | 0.144 ± 0.017 | 0.157 ± 0.011 | 0.325 ± 0.02
39 | LEVHGSCIFICV | 0.444 ± 0.017 | 0.5422 ± 0.0046 | 0.5462 ± 0.0037 | 0.359 ± 0.039 | 0.5674 ± 0.0018 | 0.336 ± 0.041 | 0.374 ± 0.0092 | 0.492 ± 0.026
